± gives the standard deviation of the averaged measurements.
How the values were obtained:
hTERT-HMEC = assay: percentage of EdU-negative (G0-arrested) nuclei per well, 72 h; higher = more G0 arrest; details: reference: sequence is the full UniProt precursor, the tested protein was the secreted form or ectodomain
MCF7 = assay: as above; details: reference: sequence is the full UniProt precursor, the tested protein was the secreted form or ectodomain
[1] = protein concentration 0.020585 µM
[2] = protein concentration 0.20585 µM
[3] = protein concentration 0.02588 µM
[4] = protein concentration 0.2588 µM
[5] = protein concentration 0.03125 µM
[6] = protein concentration 0.3125 µM
[7] = protein concentration 0.0225 µM
[8] = protein concentration 0.00525 µM
[9] = protein concentration 0.0525 µM
[10] = protein concentration 0.01975 µM
[11] = protein concentration 0.1975 µM
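Also: secreted proteins added to cultured cells, EdU pulse at the end, nuclei found by Hoechst imaging, EdU status from nuclear versus surrounding ring intensity ratio, PBS as neutral control.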

## MAVRRDSVWKYCWGVLMVLCRTAISKSIVLEPIYWNSSNSKFLPGQGLVLYPQIGDKLDIICPKVDSKTVGQYEYYKVYMVDKDQADRCTIKKENTPLLNCAKPDQDIKFTIKFQEFSPNLWGLEFQKNKDYYIISTSNGSLEGLDNQEGGVCQTRAMKILMKVGQDASSAGSTRNKDPTRRPELEAGTNGRSSTTSPFVKPNPGSSTDGNSAGHSGNNILGSEVALFAGIASGCIIFIVIIITLVVLLLKYRRRHRKHSPQHTTTLSLSTLATPKRSGNNNGSEPSDIIIPLRTADSVFCPHYEKVSGDYGHPVYIVQEMPPQSPANIYYKV
hTERT-HMEC; [1]
  percentage of EdU-negative: 4.57 ± 1%
hTERT-HMEC; [2]
  percentage of EdU-negative: 6.25 ± 0.37%
MCF7; [1]
  percentage of EdU-negative: 24.9 ± 1.2%
MCF7; [2]
  percentage of EdU-negative: 25.5 ± 0.9%

## MEPPGDWGPPPWRSTPKTDVLRLVLYLTFLGAPCYAPALPSCKEDEYPVGSECCPKCSPGYRVKEACGELTGTVCEPCPPGTYIAHLNGLSKCLQCQMCDPAMGLRASRNCSRTENAVCGCSPGHFCIVQDGDHCAACRAYATSSPGQRVQKGGTESQDTLCQNCPPGTFSPNGTLEECQHQTKCSWLVTKAGAGTSSSHWVWWFLSGSLVIVIVCSTVGLIICVKRRKPRGDVVKVIVSVQRKRQEAEGEATVIEALQAPPDVTTVAVEETIPSFTGRSPNH [F6Q0M4]
hTERT-HMEC; [3]
  percentage of EdU-negative: 5.28 ± 1.9%
hTERT-HMEC; [4]
  percentage of EdU-negative: 6.34 ± 0.056%
MCF7; [3]
  percentage of EdU-negative: 25.05 ± 0.09%
MCF7; [4]
  percentage of EdU-negative: 27.5 ± 1.3%

## MHLIDYLLLLLVGLLALSHGQLHVEHDGESCSNSSHQQILETGEGSPSLKIAPANADFAFRFYYLIASETPGKNIFFSPLSISAAYAMLSLGACSHSRSQILEGLGFNLTELSESDVHRGFQHLLHTLNLPGHGLETRVGSALFLSHNLKFLAKFLNDTMAVYEAKLFHTNFYDTVGTIQLINDHVKKETRGKIVDLVSELKKDVLMVLVNYIYFKALWEKPFISSRTTPKDFYVDENTTVRVPMMLQDQEHHWYLHDRYLPCSVLRMDYKGDATVFFILPNQGKMREIEEVLTPEMLMRWNNLLRKRNFYKKLELHLPKFSISGSYVLDQILPRLGFTDLFSKWADLSGITKQQKLEASKSFHKATLDVDEAGTEAAAATSFAIKFFSAQTNRHILRFNRPFLVVIFSTSTQSVLFLGKVVDPTKP
hTERT-HMEC; protein concentration 0.022 µM
  percentage of EdU-negative: 4.571 ± 0.028%
hTERT-HMEC; protein concentration 0.22 µM
  percentage of EdU-negative: 4.09 ± 0.62%
MCF7; protein concentration 0.022 µM
  percentage of EdU-negative: 25 ± 1.3%
MCF7; protein concentration 0.22 µM
  percentage of EdU-negative: 28.9 ± 0.99%

## MWLGRRALCALVLLLACASLGLLYASTRDAPGLRLPLAPWAPPQSPRRPELPDLAPEPRYAHIPVRIKEQVVGLLAWNNCSCESSGGGLPLPFQKQVRAIDLTKAFDPAELRAASATREQEFQAFLSRSQSPADQLLIAPANSPLQYPLQGVEVQPLRSILVPGLSLQAASGQEVYQVNLTASLGTWDVAGEVTGVTLTGEGQADLTLVSPGLDQLNRQLQLVTYSSRSYQTNTADTVRFSTEGHEAAFTIRIRHPPNPRLYPPGSLPQGAQYNISALVTIATKTFLRYDRLRALITSIRRFYPTVTVVIADDSDKPERVSGPYVEHYLMPFGKGWFAGRNLAVSQVTTKYVLWVDDDFVFTARTRLERLVDVLERTPLDLVGGAVREISGFATTYRQLLSVEPGAPGLGNCLRQRRGFHHELVGFPGCVVTDGVVNFFLARTDKVREVGFDPRLSRVAHLEFFLDGLGSLRVGSCSDVVVDHASKLKLPWTSRDAGAETYARYRYPGSLDESQMAKHRLLFFKHRLQCMTSQ
hTERT-HMEC; [5]
  percentage of EdU-negative: 5.346 ± 0.02%
hTERT-HMEC; [6]
  percentage of EdU-negative: 5.55 ± 0.9%
MCF7; [5]
  percentage of EdU-negative: 24.7 ± 5.6%
MCF7; [6]
  percentage of EdU-negative: 27 ± 3.4%

## MGSGPRGALSLLLLLLAPPSRPAAGCPAPCSCAGTLVDCGRRGLTWASLPTAFPVDTTELVLTGNNLTALPPGLLDALPALRTAHLGANPWRCDCRLVPLRAWLAGRPERAPYRDLRCVAPPALRGRLLPYLAEDELRAACAPGPLCWGALAAQLALLGLGLLHALLLVLLLCRLRRLRARARARAAARLSLTDPLVAERAGTDES
hTERT-HMEC; [7]
  percentage of EdU-negative: 5.41 ± 0.22%
hTERT-HMEC; protein concentration 0.225 µM
  percentage of EdU-negative: 6.21 ± 0.79%
MCF7; [7]
  percentage of EdU-negative: 23.5 ± 3%
MCF7; protein concentration 0.225 µM
  percentage of EdU-negative: 27.189 ± 0.018%

## Q9BZZ2
hTERT-HMEC; [8]
  percentage of EdU-negative: 4.58 ± 0.46%
hTERT-HMEC; [9]
  percentage of EdU-negative: 21.5 ± 2.5%
MCF7; [8]
  percentage of EdU-negative: 26.9 ± 2.3%
MCF7; [9]
  percentage of EdU-negative: 31.1 ± 2.4%

## MWGLLLALAAFAPAVGPALGAPRNSVLGLAQPGTTKVPGSTPALHSSPAQPPAETANGTSEQHVRIRVIKKKKVIMKKRKKLTLTRPTPLVTAGPLVTPTPAGTLDPAEKQETGCPPLGLESLRVSDSRLEASSSQSFGLGPHRGRLNIQSGLEDGDLYDGAWCAEEQDADPWFQVDAGHPTRFSGVITQGRNSVWRYDWVTSYKVQFSNDSRTWWGSRNHSSGMDAVFPANSDPETPVLNLLPEPQVARFIRLLPQTWLQGGAPCLRAEILACPVSDPNDLFLEAPASGSSDPLDFQHHNYKAMRKLMKQVQEQCPNITRIYSIGKSYQGLKLYVMEMSDKPGEHELGEPEVRYVAGMHGNEALGRELLLLLMQFLCHEFLRGNPRVTRLLSEMRIHLLPSMNPDGYEIAYHRGSELVGWAEGRWNNQSIDLNHNFADLNTPLWEAQDDGKVPHIVPNHHLPLPTYYTLPNATVAPETRAVIKWMKRIPFVLSANLHGGELVVSYPFDMTRTPWAARELTPTPDDAVFRWLSTVYAGSNLAMQDTSRRPCHSQDFSVHGNIINGADWHTVPGSMNDFSYLHTNCFEVTVELSCDKFPHENELPQEWENNKDALLTYLEQVRMGIAGVVRDKDTELGIADAVIAVDGINHDVTTAWGGDYWRLLTPGDYMVTASAEGYHSVTRNCRVTFEEGPFPCNFVLTKTPKQRLRELLAAGAKVPPDLRRRLERLRGQKD [Q96SM3]
hTERT-HMEC; [10]
  percentage of EdU-negative: 5.64 ± 1.2%
hTERT-HMEC; [11]
  percentage of EdU-negative: 5.93 ± 0.071%
MCF7; [10]
  percentage of EdU-negative: 26.1 ± 3.2%
MCF7; [11]
  percentage of EdU-negative: 28.5 ± 1.1%
